From the DeepSol protein solubility set

assay: soluble on expression in E. coli; label from the status in PepcDB or PDB records

Sequence | soluble on expression in E. coli
MGSDKIHHHHHHMISMDEFIEFVRGGPLGPIKKWGTKWSLWPVHLVTACCGAELAHAFACGYDGERIGALNYGIARQTNLIIVEGAITRKMAKVLRITWEQMPDPKFVIVMGACGLQGGIFWNGYHMVKPSDVVPVDFFIPGCPPTPEALLRGIRQLQFKIETGEAKTSATFPEVPLEAGRKPRVLPKSPKKISKAPAVIVNAPKEVDWEFGQKLVEEIKAKVEAKSVTITGKNRIAVKVESDYIPRAAMRLREMGFDHVKNVNVIDVPNEDKFIVEYHFSSYSVKELMPVIVNVFADIPRENPRVKSLASMFPSADYMEREMHDFFGVIFEGNPWMGRKFLLAPDAPEFPLRKDFKLEEEVYVR | not soluble
MTELARLKFYATQPHTCSYLPEEQATTLFLDPSQPMDVQVYADLSDMGFRRSGDHLYRPHCQNCSACVPARIPVNLFVPDRQQKRILKRNADIQVSSAKPVFTQEYFDLYQRYIEQRHADGDMFPPSREQFSTFLVRDLPFSRFYEFRVDQRLLAVAVTDLLPNGLSAVYTFYEPDEERRSLGRYAILWQIGEATRLQLQAVYLGYWIKNCKKMNYKTQYRPIELLTNQRWVTLYLEHHHHHH | not soluble
MKFVNFDEYKQLVDYFRNRLNPNYSSPTMLFIISITGMRASEAFGLVWDDIDFNNNTIKCRRTWNYRNKVGGFKKPKTDAGIRDIVIDDESMQLLKDFREQQKTLFESLGIKPIHDFVCYHPYRKIITLSALQNTLDHALKKLNISTPLTVHGLRHTHASVLLYHGVDIMTVSKRLGHASVAITQQTYIHIIKLEHHHHHH | not soluble
TVAYIAIGSNLASPLEQVNAALKALGDIPESHILTVSSFYRTPPLGPQDQPDYLNAAVALETSLAPEELLNHTQRIELQQGRVRKAERWGPRTLDLDIMLFGNEVINTERLTVPHYDMKNRGFMLWPLFEIAPELVFPDGEMLRQILHTRAFDKLNKW | soluble
DLKQREQALEDSRQRYQTLLQAAPDPIFVADAETGEIVEANAAAEELRGQPRDDIIGRHQTELHPEEAGGLYEDVFEQAFDDASTITELPDGTQPELATPDGETVPIEISAAAVSLPDGPVLFGVFRDVS | not soluble
MFEKGIWLNEPRQWSVTDQRLTVITDPETDFWQQTHYGFCRDTGHFLGVSVKGEFTAQVHVQGDFKTLYDQAGLMVRVDERNWVKTGVEVSDGALMLGSVLTWGQSDWATGVFDDSSSGLWLRVTVAKGVMRIQHSSDGLRWPLLRLAAFPLSERYAVGAMCCSPERGGLKVVFSHFEVMPALGKDLHDLTLEHHHHHH | not soluble
MFKIGSVLKQIRQELNYHQIDLYSGIMSKSVYIKVEADSRPISVEELSKFSERLGVNFFEILNRAGMNTKSVNETGKEKLLISKIFTNPDLFDKNFQRIEPKRLTSLQYFSIYLGYISIAHHYNIEVPTFNKTITSDLKHLYDKRTTFFGIDCEIVSNLLNVLPYEEVSSIIKPMYPIVDSFGKDYDLTIQTVLKNALTISIMNRNLKEAQYYINQFEHLKTIKNISINGYYDLEINYLKQIYQFLTDKNIDSYLNAVNIINIFKIIGKEDIHRSLVEELTKISAKEKFTPPKEVTMYYENYVAIENNPIPEIKEQS | soluble
NVQEEVTCPICLELLTEPLSLDCGHSLCRACITVSNKEAVTSMGGKSSCPVCGISYSFEHLQANQHLANIVE | soluble
AEAKSKLTVALGKDIAGTPVVGDLAKMPHLLVAGMTGSGKSVGVNGMIMSMLFKATPDEVRFIMIDPKMLELSIYDGIPHLLCPVVTDMREAGQALNWCVAEMEKRYRLLSHAGVRNLEGFNQKVEAAKAAGKPLLNPFSLNPDEPEPLEKLPLIVVVIDELADLMMTERKAVEQQIARLAQKARAAGIHMIVATQRP | not soluble
MSLRTLPAIVMMTLYALAGLAHAQQPPWRVGFCQDTLDIPWRAAQAMTFSQTLQTDKRFQVILSDAKGNTTQQAIDLEHMVERGVHVLVTSPRDGAVLTPVISNIYRQGVPVVLLSRRTLDENFTTFIAPDDAEIGRQAARYLSKRLNEKGKILVIQGLGSASTTQQRTVGFIQELSLHPHMQIVAQPFANYKKEMAILIMESILAQKLPFDAIYVHSDAMALGAILALKRAGIDPTKLPIVSIDYTRAGRESLRKGEIDAIFTYPNGVKQGITAVKRILAGQPVNKFQTVPSTLVTQENINTLEPVEGHHHHHH | soluble
MLSTLSKSARLNQTRFIRLSHSAAAAKDAKPKKVAAVDSPSFVMNLFRGKAVTDQVFPYPLNMTDEQKETLGMVMSPLEKMLVEVNDVVKNDETSDIPRAVLDQFAELGTFGVLVPPELEGSGFNNSQMARVAEIVGAYDLGFGVVMGAHQSIGYKGILLEGTDAQKQKYLPDLATGRKFAAFALTEPTTGSDASSVRTRAELSADGKHYVLNGGKIWISNGGFADVFTVFAQTPVKQADGSTKDKMSAFIVERAFGGVTSGPQEKKMGIKGSNTTEVHFDNLKIPVENLLGKEGEGFKVAMNILNNGRFGIPAACTGAMKHCIQKTVDHITTRVQFGKKLQEFGNIQEKLVEMISKLYATESIVYMLSSNMDRGIKEYQLEAAIGKVLASENAWLVCDDAIQVHGGMGFMRETGLERVLRDLRIFRIFEGANDVLRLFIALTGAQHAGKHLAEQASGVGGLIGLAVSRVTGGNTGSNFGQVVDASLQDSAKVLDQQIALFGQTVQGLLMKHKKGIIDRQYEMHRVADAAINIYSSAAVLSRATYAIKNKSSSADFERKVATYYVDKAMKSSNRFLKDAGSGVENASKVATIESLAKEVCGNGGLTLQHPVEL | not soluble
MGSDKIHHHHHHVGNLLVNLAMVLRQPTGISTYALSLLPYLRSLQPTLLSDRLYEGFDHQLISSRLCSDRGRRARLARLYWTQTQVPKLYRRLGSRLLFSPAPEAPIDRHCRSVVMVHDLRPLQLPSHSWQTYYFRWVVPKIVAQASHVLCNSEATATDLCHFYQLPAQKITPIYLGYDRQHYQPWSGKTSNYFLHIGQQFPHKNLERLIRAFAQLPTDYQLYLAGSRHASETPRLEQLVHSLGLRDRVQFLRYVDYADLPRLIGEAIALVYPSLWEGFGLPILEAMACGTPVITAHGSSLSEVGGEAVLYVDPYRIEAIAAAMRDLIDDSNLRQSLRDRGFQQASRFSWEATGKETCQVLEKFL | not soluble
MRVQILKDFVKQHFPATPLLDYALEVEKITTSKKPNLILNVDGFIGVAFVDMLRNCGSFTREEADEYVDIGALNGIFVLGRSMGFIGHYLDQKRLKQGLYRHPWDDISYVLPEHMSM | not soluble
MKANKVLFITQEITPYVPESEMANMGRFLPQAIQEKGREIRTFMPKWGNVNERRNQLHEVIRLSGMNLIIDDTDHPLIIKVASIQAARMQVYFIDNDDYFQHRQMVADENGVEYKDNDERAIFYARGVLETVKKLRWCPDIIHCQGWMSAFVPLYIKKAYQDEPSFRDSKVVFSVFEDDFKSDCEGNLTEKLMLKGIEKNDVESIVKSPANYEELCKLAIAYSDGVIQNSEKVNENVMKFARESGVPVLDYQPADTYVDAFNEFYDKVWEFEKK | not soluble
MAHHHHHHMSVEELFATARKYSDSVVGGPAWDRLFSLRLTNEEILCIAKKMILSQPTFLMEVNGTKLEEIPPLAVAVRIEAFTNVPKSEGESGGVEKAVALEEKRTAAQQREVLRELASVRAQYRAVLREGNDLMACIDEEERRWNKIEMHREEEQRKRKEHPAAPPSEHDEHIRKNVCALETLQQKREKEEESAQATARTVMAEKKRKKTGKGSRGGGGSEKKFASTSNVTSKEAEIRNVRAHNTALRRLLEKLANELKEEEQTMENLSIDLRGFMSDINKLEKAKLLLTVEHGMLMNTTARLQQSLRDQKEKLRQEQEAAAAEQREISRRLLVQQERTKKSLHEKNGTTELLHRLKTNLSK | not soluble
MTLEQQDRTEQQLAALNAQVRQDLCYLNYPAANWSKPVSTSDGQLVSDVVIIGGGMCGLVAWHALTRAGIANIRIVDRAAKGEEGPWVTYARMETLRSPKNLLGPALGMASLTFRAWYTARFGKEAWEELFRIPRPMWMEYLSWYRQVMEIPVENNIHVTRVIPRLDGLLELEIEGGKADPIITRKLVMATGRDGLGEPTIPDFVKGMPRHVSWAHSADMIDFQRLKGKRVVVIGVGASAVDNAAEALEQGAGEVRLLARRKTMPTINKLMGIGSYGVTAGFAKIDPEWRWRLMDYSVKQQTPAPHNSTLRVSRHSNAYFHFDCGIQSMKEEGGEVVITTINGRVFRTDFVILGTGFSIDPVSRPELEMFNGQIACWEDRYTPPAGEENPGLGRFPWLQDDFSFTEKEPGAAPWLQHIHCFNYGSSVSLGKVSGDIPAISEGALWLARGIAASLFIADIDHHWEALKAYEKPELDGSEWTDADADPSMQKTALEHHHHHH | soluble
MGSSLSNLNDGTNGLAMGPGLGDIPESCVACVFMYLTPPEICNLAGLNRSFRGAASSDSVWEKKLPENYQDLLDLLPPERYHSLSKKDIFAVLSRPIPFDDDNKEVWIDRVTGRVCMAISARGMSITGIEDRRYWNWIPTEESRFHVVAYLQQIWWFEVDGTVRFHLPPGVYSLSFRIHLGRFTKRLGRRVCHFELTHGWDLKPVRFSLSTSDGQEASCEYYLDDVERNEALGKHKRGYWIEYRVGEFIVNGSEPSTEIQWSMKQIDCTHSKGGLCVDSVFINPIGDVKEHKRKAVLKEA | soluble
MGSDKIHHHHHHMYNVQTYKEKISRFEEVCFNWELKRASIVLNKRFSSYNSSAKVLLDAGFSLYAAKIEVCRELNNGEELERQYTYRSIAEGTLSEKDFKYIWEQCMSGSGNQTSILTIDEHFYSVQTELDKGWEKSCIVFYDKNEPIGMSIPHIETGTESEGRLFYFGVMLYYRGKGIASRLHLQSLHMLKEMGATYYIGSTHTSNEKMQRIFWRNNCSLKTEIELYYKIFNEG | not soluble
SWVWNQMFVLEEFSGPEPILVGRLHTDLDPGSKKIKYILSGDGAGTIFQINDITGDIHAIKRLDREEKAEYTLTAQAVDFETNKPLEPPSEFIIKVQDINDNAPEFLNGPYHATVPEMSILGTSVTNVTATDADDPVYGNSAKLVYSILEGQPYFSIEPETAIIKTALPNMDREAKEEYLVVIQAKDMGGHSGGLSGTTTLTVTLTDVNDNPPKFAQSLYHFSVPEDVVLGTAIGRVKANDQDIGENAQSSYDIIDGDGTALFEITSDAQAQDGVIRLRKPLDFETKKSYTLKVEAANIHIDPRFSSRGPFKDTATVKIVVE | soluble
MTIQLINESSNTAKFQQICEKWQLVHDKSASLALVLTDTRLELRKLDEAKLGAIAVNFVDGTLAHRRKFGGGRGEAIAKAVGIKGNYLPSVIDATAGLGRDAFVLAAIGCKVTLVERHPVIAALLEDGLTRAYLDAEIGEFMQQRMQLANVHNIAQLDTTTQSADVVYLDPMYPHKQKSALVKKEMRVFQHLVGADLDADQFLLPAKALATKRVVVKRPDYAPPLAEQHPSFSQKTKNHRFDIYLSPLQKRLEHHHHHH | soluble
MGSDKIHHHHHHMSEAMQLTLPKSGSIEAYMQSAYSIPMLTAEKEHDLATRLYNENDLQAAQELIMSHLRFVIHVAKGYSGYGLPHADLVQEGNVGLMKAVKRFNPEVGVRLVSFAVHWIKAEIHEFVLKNWRIVKVATTKAQRKLFFNLRKNKKRLGWFSTEEVNTVAENLGVTTKDVMEMESRMSSHDQAFELSKDDDDNLGSSSFSPAQYLQDKQSDLAVEVENDNWDNHANKRLSTALVTLDERSQDIIKTRWLTEDKTTLQELANKYQISAERVRQLEKNALSKLKNTMVFD | not soluble
